# Test results taken from US20230212319A1, “NOVEL ANTIGEN BINDING DOMAINS AND SYNTHETIC ANTIGEN RECEPTORS INCORPORATING THE SAME” (University of Southern California, priority 2020, published 2023).
# B1: 22164 (protein)
# chain: MALPVTALLLPLALLLHAARPDIQMTQSPSSLSASVGDRVTITCKASDHINNWLAWYQQKPGQAPKLLIYGATTLETGVPSRFSGSGSGTDYTLTISSLQPEDFATYYCQQSWNTPWTFGQGTKLEIKRLEDLKNVFPPEVAVFEPSEAEISHTQKATLVCLATGFYPDHVELSWWVNGKEVHSGVCTDPQPLKEQPALNDSRYCLSSRLRVSATFWQNPRNHFRCQVQFYGLSENDEWTQDRAKPVTQIVSAEAWGRADCGFTSESYQQGVLSATILYEILLGKATLYAVLVSALVLMAMVKRKDSRGRAKRSGSGATNFSLLKQAGDVEENPGPTSATMDWIWRILFLVGAATGAHSGPEVQLVESGGGLVQAGGSLRLSCAASGSVFSGNVMGWYRQAPGKEREWVAAIASGGSIYYRDSVKGRFTISRDNAKNTVYLQMNSLKPEDTAVYYCNSHPPTLPYWGLGTQVTVSSGSGGGGSGGGGSGGGGSFEQVQLQQPGAELVKPGASVKMSCKASGYAFSSYWINWMKQKPGQGLEWIGQIYPGDGDTNYNGKFKGRATLTADTSSSTAYMQLSSLTSEDSAVYFCARSITTVVGCAMDYWGQGTSVTVSSTRIQNPDPAVYQLRDSKSSDKSVCLFTDFDSQTNVSQSKDSDVYITDKCVLDMRSMDFKSNSAVAWSNKSDFACANAFNNSIIPEDTFFPSPESSCDVKLVEKSFETDTNLNFQNLSVIGFRILLLKVAGFNLLMTLRLWSSRAKRSGSGVKQTLNFDLLKLAGDVESNPGPSRGHMTEYKPTVRLATRDDVPRAVRTLAAAFADYPATRHTVDPDRHIERVTELQELFLTRVGLDIGKVWVADDGAAVAVWTTPESVEAGAVFAEIGPRMAELSGSRLAAQQQMEGLLAPHRPKEPAWFLATVGVSPDHQGKGLGSAVVLPGVEAAERAGVPAFLETSAPRNLPFYERLGFTVTADVEVPEGPRTWCMTRKPGA
# B2: SEQ ID NO: 22292: D domain (Afo3) binding a p26 domain, attached to the N-terminus of the vL fragment of a hu-mROO5-1 based SIR (protein)
# chain: MALPVTALLLPLALLLHAARPACMGSWFEFYDRLNAIDARLWALGGSEAELAAFEKEIAAFESELQAYKGKGNPEVENLRVHAAAIREWLQAYRHNGTGGGGSGGGGSGGGGSEFDIQMTQSPSSLSASVGDRVTITCKASDHINNWLAWYQQKPGQAPKLLIYGATTLETGVPSRFSGSGSGTDYTLTISSLQPEDFATYYCQQSWNTPWTFGQGTKLEIKRLEDLKNVFPPEVAVFEPSEAEISHTQKATLVCLATGFYPDHVELSWWVNGKEVHSGVCTDPQPLKEQPALNDSRYCLSSRLRVSATFWQNPRNHFRCQVQFYGLSENDEWTQDRAKPVTQIVSAEAWGRADCGFTSESYQQGVLSATILYEILLGKATLYAVLVSALVLMAMVKRKDSRGRAKRSGSGATNFSLLKQAGDVEENPGPTSMDWIWRILFLVGAATGAHSFEQVQLQQPGAELVKPGASVKMSCKASGYAFSSYWINWMKQKPGQGLEWIGQIYPGDGDTNYNGKFKGRATLTADTSSSTAYMQLSSLTSEDSAVYFCARSITTVVGCAMDYWGQGTSVTVSSTRIQNPDPAVYQLRDSKSSDKSVCLFTDFDSQTNVSQSKDSDVYITDKCVLDMRSMDFKSNSAVAWSNKSDFACANAFNNSIIPEDTFFPSPESSCDVKLVEKSFETDTNLNFQNLSVIGFRILLLKVAGFNLLMTLRLWSSRAKRSGSGVKQTLNFDLLKLAGDVESNPGPSRGHMTEYKPTVRLATRDDVPRAVRTLAAAFADYPATRHTVDPDRHIERVTELQELFLTRVGLDIGKVWVADDGAAVAVWTTPESVEAGAVFAEIGPRMAELSGSRLAAQQQMEGLLAPHRPKEPAWFLATVGVSPDHQGKGLGSAVVLPGVEAAERAGVPAFLETSAPRNLPFYERLGFTVTADVEVPEGPRTWCMTRKPGA
# Tested on: L428 cells
# Test: JNG assay, co-culture with L428 cells
# Type: cell-based
# Experimental: Cellular supernatant is collected and assayed for the induction of cytokines (e.g., IL2).
# JNG (Jurkat cells expressing EGFP under an NFAT promoter) were infected with lentiviral vectors encoding different single chain and multi-chain SARs by spinfection in the presence of 8 µg/ml of Polybrene® (Sigma, Catalog no. H9268). The Jurkat-NFAT-GFP cells are engineered in such a way that the IL-2 promoter, which carries NFAT binding sites, is cloned upstream of the GFP gene. These cells have been used to study signaling via TCR and CAR. The different SARs were stably expressed in Jurkat NFAT-GFP cells by lentiviral mediated gene transfer, followed by selection with puromycin or blasticidin. No drug selection was used in case the construct lacked an antibiotic resistance gene. The SAR-expressing Jurkat-NFAT-GFP cells were cocultured with the target cells at E:T ratio of approximately 1:2 for approximately 4 hours to 18 hours. When the interaction between SIRs and their target antigen results in activation of the NFAT pathway, GFP expression is induced. […] GFP expression was monitored by FACS analysis. The Jurkat-NFAT-GFP (parental) cells were used as control. The structure of different constructs can be determined based on their names. […] The sequence of the other constructs in the table can be similarly determined from their names and by referring to the different Tables of this disclosure that provide the names and SEQ ID NO of the different modules. Alternatively, the composition and modular architecture of the different SAR constructs can be determined from their sequences by bioinformatics tools, including using nucleic acid and amino acids homology searches. […] The signs +/-, +, 2+ etc. after the name of the cell lines indicate the relative degree of positivity on the Jurkat-NFAT-GFP assay as measured by the % GFP positive cells after culture of the SAR expressing Jurkat-NFAT-GFP cells with that cell line above the % GFP cells observed in parental Jurkat NFAT-GFP cells serving as controls. […]
Molecule,NFAT-GFP ASSAY: L428 (co-culture with L428),"GFP induction (L428 cells (CD123+), only in the presence of SAR adaptor bc40-p26-CD123-cg06 (SEQ ID NO: 23120))"
B1,"3+ (refer to approximately 5%, 10%, 20%, 30%, 40% and 50% GFP positive cells)",
B2,,robust induction of GFP
